Assay results published in the nanobody polyreactivity screen of Harvey et al. (2022).

Assay: yeast display, Sf9 membrane polyspecificity reagent, FACS + sequencing; frameworks hold sequencing errors
In short: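 Sorting gates, low and high (top ~1%), were placed on anti-HA fluorescence to track expression and on streptavidin fluorescence to track reagent binding. A clone's polyreactivity label is taken from the gate it came out of. The reagent was 10% biotinylated, detergent-solubilized Sf9 membrane, applied for 1 hour at 4 °C to galactose-induced yeast display cells.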

| Sequence | polyreactivity (PSR sort gate) |
| --- | --- |
| QVQLVESGGGLVQAGGSLRLSCAASGSTFSYYAMGWYRQAPGKEWEFVAAISRSGGRTYYADSVKGRFTISRDNAKNTVYLQMNSLKPEDTAVYYCATVYYYDFSRTHPWPGDYWGQGTQVTVSS | high polyreactivity |
| QVQLVESGGGLVQAGGSLRLSCAASGSTFARYAMGWYRQAPGKERELVAAISGGGGSTYYADSVKGRFTISRDNAKNTVYLQMNSLKPEDTAVYYCAKLLARGNRYDSWGQGTQVTVSS | high polyreactivity |
| QVQLVESGGGLVQAGGSLRLSCAASGSILDGYAMGWYIQAPGKARELVAAITTGGGSTYYADSVKGRFTISRDNAKNTVYLQMNSLKPEDTAVYYCAAYRKPGSWTWWVRGYGYWVQGTQVTVSS | low polyreactivity |
| QVQLVESGGGLVQAGGSLRLSCAASGRTFQYNTMGWYRQAPGKERELVAAISRSGGTTYYADSVKGRFTISRDNAKNTVYLQMNSLKPEDTAVYYCAAANSYTFRYGSWGQGTEVTVSS | high polyreactivity |
| QVHLVESGGGLVQAGGSLRLSCAASGSIFVPYAMGWYRKAPGKERELVAAITYSDGCTYYADSVKGRFTMSRDNAKNTVYLQMNSLKPEDTAVYYCATYPQYYFRYDYWGQGTQVTVSS | high polyreactivity |
| QVQLVESGGGLVQAGGSLRLSCAASGLTFTGNAMGWYRQAPGKEREFVAAIRWSAGSTYYADSVKGRFTISRDNAKNTVYLQMNSLKPEDTAVYYCNAALNVSGHYPNDYWGQGTQVNVSS | low polyreactivity |
| QVQLVESGGGLVQAGGSLRLSCAASGRIFGVYAMGWYRQAPGKERELVAAIDRRGGRTYYADSVKGRFTISRDNAKNTVYLQMNSLKPEDTAVYYCATARYRAEMGYWGQGTQVTVSS | high polyreactivity |
| QVQLVESAGGLVQAGGSLRLSCAASGRIYGQNAMGWYRQAPGKERELVAAITGSGGRTYYADSVKGRFTISRDNAKNTVYLQMNSLKPEESAVYYSAVRVTSYYRTMDYWGQGTQVTVSS | low polyreactivity |
| QVQLLESGGGLVQAGGSLRLSCASSGRTFLTNAMGWYRQAPGKERELVAVITDGDTTYADSVKGRFTISRDNAKNTVYLLMNSLKPEDSAVYYCAADENYWSAGYDSWGLGTQVTVSS | low polyreactivity |
| QVQLVESGGGLVQAGGSLRLSCAASGSIFDGNAMGWYRQAPGKERDLVAANTKNDGTTYYADSVKGRFTISRDNAKNTVYLQMNSLKQEDTAVYYCAAESVYQVYTYVSSGDYWGQGTQVTVSS | low polyreactivity |
| QVQLVESGGCLVQAGGTLRLSCASSGNTFVDYGMGWYRQAPGKERELVAAITRGGTTKYADSVKGRFTISRVNAKNKVYLQMNSLKPEDTAVYYCAAEWPVNFDYWGKGTQVTVSS | low polyreactivity |
| QVQLVESWGVLVQAGGSLRLSCAASGYTFLVYAMGWYRQAPGKERELVAGITRGSSTYADSVKGRFTISRDNAKNTVYLQMNSLKPEDTAVYYCAARFAKQDYDYWGQGTQVTVSS | high polyreactivity |
| QVQLVESGGGLVQAGGSLRLSCAASGFTFSRYAMGWYRQAPGKEREFVAAISWSGGSTYYADSVKGRFTISRDNAKNTVYLQMNSLKPEDTAVYYCNAGSQLLASQTRYDYWGQGTQVTVSS | low polyreactivity |
| QVQLVESGGGLVQAGGSLRLSCAASGSTYRYYDMGWYRQAPGKERELVAAITWSGGTTYYADSVKGRFTISRDNAKNTVYLQMNSLKPEDTAVYYCAADSVLTPYDYWGQGTQVTVSS | low polyreactivity |
| QVQLVESGGGLVQAGGSLRLSCAASGRTFHRYVMGWYRQAPGKERELVAAITRSGGITYYADSVKGRFTISRDNAKNTVYLQMNSLKPEDNAVYYCAKDDLTASGFDYWGQGTQVTVSS | low polyreactivity |
| QVQLVESGGGLVQAGGSLRLSCAASGLTFKVYDMGWYRKAPGKERELVAAIWSDGDTYYADSVKGRFTISRDNAKNTVYLQMNSLKPEDTGVYYCAAVPGCTVHFVYGNKYDYWGQGTQVTVSS | low polyreactivity |
| QVQLVESGGGLVHAGGRLRLSCAASGRIFWINAMGWSRQAPGKDRELVATISSGSTSYADSVKGRFTISRDNAKNTVYLQMNRLKPEATAVYYCAVTLRYTRSGAYDYWGQGTQVTVSS | low polyreactivity |
| QVQLVESGGGLVQAGGSLRLSCAASGRTFSYYAMGWYRQAPGKERELVAGISWRGTSTYADSVKGRFTISRDNAKNTVYLQMNSLKPEDTAVYYWNAEVTGHYSYHKFDYWGQGTQVTVSS | low polyreactivity |
| QVQLVESGGGLVQAGGSLRLSCAASGRTFRYYAMGWYRQAPGKERELVAAISWNGANTYYADSVKGRFTISRDNAKNTVYLQMNSLKPEDTAVYYCAATYYRWKGYDYWGQGTQVTVSS | high polyreactivity |
| QVQLVESGGGLVQAGGSLRLSCAASGSIFNYYGMGWYRQAPGKERELVAAISVRGGRTYYADSVKGRFTISRDNAKNTVYLQMNSLKPEDTAVYYCAADGGYSLGYYDDELDYWGQGTQVTVSS | low polyreactivity |
| QVQLVESGGCLVQAGCSRRLSCAASVRIFARNTMGWSRQAPGKERELVAAISWGGGRTYYADSVKGRFTISRDNAKNTVYLQMNSLKPEDTAVYYCAAETLQIPRGEYWGQGTQVTVSS | low polyreactivity |
| QVQLVESGGGLVQAGGSLRLSCAASGSIFGIYVMGWYRPAPGKERELVAGISTRGGSTYYADSVKGRFTISRDNAKNTVYLQMNSLKPEDTAVYYCAAVPASYRYPMYYWGQGTQVTVSS | low polyreactivity |

| Sequence | polyreactivity (PSR sort gate) |
| --- | --- |
| QVQLVESGGGLVQAGGSLRLSCAASGFIFYSNAMGWYRQAPGKERELVAAISWDAGSTYYADSVKGRFTISRDNAKNTVYLQMNSLKPEDTAVYYCATDRIVGRYIYNNWGQGTQVTVSS | high polyreactivity |
| QVQLVESGGGLVQAGGSLRLSCAASGFITPWYAMGWYRQAAGKEREWVAAIDWSGGSTYYADSVKGRFTISRDNAKNSVYLQMNSVKPEDTAVYYCAARYYTASVRAGRVRMYYWGQGTQVTVSS | high polyreactivity |
| QFQLVESGGGLVQAGGSLRLSCAASGSIIPIYAMGWYRQAPGKERELVAAINRSGGSTYYADSVKGRFTISRDNAKNTVYLQMNSLKPEDTAVYYCNADYGYHNQLFWGYYGWSSDHWGQGTQVTVSS | low polyreactivity |
| QVQLVESGGGLVQAGGSLRLSCAASGSIFAANAMGWYRQAPGKERELVAAITRGGRTYYADSVKGRFTISRDNAKNTVYLQMNSLKPEDTAVYYCAAYVFSKREYYRYDYWGQGTQVTVSS | high polyreactivity |
| QVQLVESGGGLVQAGGSLRLSCAASGFIIANNAMGWYRQAPGKERELVASIRTRGGSTYYADSVKGRFTISRDNAKNTVYLQMNSLKPEDTAVYYSAARPFPRRYDYWGQGTQVTVSS | low polyreactivity |
| QVQLVESGGGLVQAGGSLRLTCAASGRIFSRYAMGWYRQAPGKERELVASITRGGSTYADSVKGRFTISRDNAKNTVYLQMNSLKPEDTAVYYCNATYFTRYRQYDYWGQGTQVTVSS | low polyreactivity |
| QDQLVESGGGLVQAGGSLRLSCAASGSIFLKYVMGVYRPEPGKERELVASISSGGGTYYADSVKGRFTISRDNAKNTVYLQMNILKPEDTAVYYCARRPYRGSYAFDYWGQGTQVTVSS | low polyreactivity |
| QVQLVESGGGLVQAGGSLRLSCAASGRTFGRYAMGWYRQAPGKERELVAAISWSGGSTNYADSVKGRFTISRDNAKNTVYLQMISLKPEDTAVYYCAAVTTDGVYAFDYWGQGTQVTVSS | low polyreactivity |
| QVQLVESGGGLVQAGGSLRLSCAASGRTFRGYTMGWYRQAPGKERELVAAINWSGGRTYYADSVKGRFTISRDYAKNTVYLQMNSLKPEDTAVYDCNAVTQITGSSDGDYWGQGTQVNVSS | high polyreactivity |
| QVQLVESGGGLVQAGGSLRLSCAASGSTFPPYAMGWYRQAPGKERELVAAISWSGSGSTYYADSVKGRFTISRDNAKNTVYLQMNSLKPEDTAVYYCAAGYVRVITPAYYYWGQGTQVTVSS | low polyreactivity |
| QVQLVESGGGLVQAGGSLRLSCAASGYTFPLYAMGWYTQAPGKERELVADINIGGASTYYADSVKGRFTISRDNAKNTVYLQMNSLKPEDTAVYDCAKEYYDGYFPTFEYDYWGQGTQVTVSS | low polyreactivity |
| QVQLVESGGGLVQAGGSLRLSCAASGRTFTYNTMGWYRQAPGKERELVAAISSSGGSTYYADSVKGRFTISRDNAKNTVYLQMNSLKPEDTAVYYCAKRYFSSSRYYYWGQGTQVTVSS | high polyreactivity |
| QVQLVESGGGLVQAGRSLRLSCAASGLIFVNYAMGWYRPAPGHERELVAASTRSGGRTYYADSVKGRFTISRDNAKNRRYLHMNSLKPVDTAVYYCAAYVRSATLRVNYGYWGQGTQVTVSS | high polyreactivity |
| QVQLVESGGGLVQAGGSLRLSCAASGSTFTIYAMGWYRQAPGKERELVAAITFSGDRTYYADSVKGRFTISRDNAKNTVFLQMNSLKPEDTAVYYCAAKSSTKQRKYYWGQGTQVTVSS | high polyreactivity |
| QDQLVESGGGLVQAGGSLRLSCAASGSTFVKNAMGWYRQAPGKERELVATISKSAGRTYYADSVKGRFTISRDNAKNTVYLQMNSLKPEDTAVYYCNVVQKRDFDYWGQGTQVTVSS | high polyreactivity |
| QVQLQDSGGGLVQAGGSLRLSCAASGTIVTARFMGWYRQAPGKERELVATITDGGNTNHADSVKGRFTISRDNAKNTVYLQMNSLKPEDAAVYYCAAGEVDNDTLLYWGQGSQVTVSS | low polyreactivity |
| QVQLVESGGGLVQAGGSLRLSCAPSGRIFQANAMGWYRQAPGKERELVASISSGVSTNYADYVKGRFTISRDNAKNTVYLQMNSQKQEDTGVYYCADSDPSSAYWVGYYWYDNWGQGTQVTVSS | low polyreactivity |
| QVQLVESGGGLVQAGGSLRLSCAASGRTFQYYTMGWYRQAPGKERELVAAISSSGVSTYYADSVKGRFTISRDNAKNTVYLQMNSLKPEDTAVYYCNAVSRARYHAAYDSWGQGTQVTVSS | high polyreactivity |
| QVQLVESGGGLVQAGGSLRLSCAASGCIFTYNTMGWYRQAPGKERELVAAISGRGGRTYYADSVKGRFTISRDNAKNTVYLQMNSLKPEDTAVYYCNARKYSQKIYGNYNYWGKGTQVTVSS | high polyreactivity |
| QVQLVESGGGLVQAGGSLRLSCAASGFIFRGYAMGWYRQAPGKERELVAAITSSGGDTYYADSVKGRFTISRDNAKNTVYLQMNSLKPEDTAVYYCAKRARRIGDVNMGSWGQGTQVTVSS | low polyreactivity |
| QVQLVESGRCLVQAGGSLRLSCAASGITFDGNAMGWYRQEPGKERELVAGITRIGGGTYYADSVKGRFTISRDNAKNTVYLQMNSLKPEDTAVYYSAKDALVPNFTKDIFEYDYWGQVTQVTVSS | low polyreactivity |
